Laboratory results as given in article PMC2229597.
Read-outs that look alike come from different tables or passages of the source.

How the values were obtained:
[1] = molecular target: heteromeric CNG channel containing CNGA2 and CNGA4 (UniProt Q00195); assay: patch-clamp electrophysiology
[2] = molecular target: CNGA2 mutant channel 2-S301F (UniProt Q00195); assay: patch-clamp electrophysiology
[3] = molecular target: CNGA2 mutant channel 2-T308S (UniProt Q00195); assay: patch-clamp electrophysiology
[4] = molecular target: homomeric CNG channel composed of olfactory CNGA2 (UniProt Q00195); assay: patch-clamp electrophysiology
[5] = molecular target: CNGA2 mutant channel 2-E325K (UniProt Q00195); assay: patch-clamp electrophysiology
[6] = molecular target: homomeric CNG channel composed of olfactory CNGA2 (UniProt Q00195); assay: patch-clamp electrophysiology; remark: listed apart in the source
[7] = molecular target: CNGA2 mutant channel 2-Y321C modified with MTSES (UniProt Q00195)
[8] = molecular target: CNGA2 mutant channel 2-D316C (UniProt Q00195)
[9] = molecular target: CNGA2 mutant channel 2-Y321C modified with MTSET (UniProt Q00195)
[10] = molecular target: CNGA3 double mutant channel 3-N361D/R366Y (UniProt Q29441)
[11] = molecular target: CNGA3 mutant channel 3-N361D (UniProt Q29441)
[12] = molecular target: CNGA3 mutant channel 3-R366Y (UniProt Q29441)
[13] = molecular target: CNGA2 mutant channel 2-Y321R (UniProt Q00195)
[14] = molecular target: CNGA2 mutant channel 2-D316N (UniProt Q00195)
[15] = molecular target: homomeric CNG channel composed of olfactory CNGA2 (UniProt Q00195); assay: patch-clamp electrophysiology; remark: listed apart in the source

In the case of Pseudechetoxin (natural protein), the Kd [1] is reported as 100 nM, the Ki [2] is reported as 16 nM and the Ki [3] is reported as 16 nM. For the same substance, the Ki [4] was 32 nM, the time constant of wash-off (dissociation) [4] was 67 s and the Ki [5] was 123 nM. For the same substance, the Ki [6] was 180 nM, the block of current by 500 nM PsTx after modification of the patch with MTSES [7] was 93% and the block of current by 500 nM PsTx, outside-out patches from oocytes [8] was 33%. It also gave a block of current by 500 nM PsTx after modification of the patch with MTSET [9] of 81%, an inhibition of current by 500 nM PsTx, outside-out patches from oocytes (n = 4) [10] of 84% and an inhibition of current by 500 nM PsTx, outside-out patches from oocytes (n = 9) [11] of 15%. For the same substance, the inhibition of current by 500 nM PsTx, outside-out patches from oocytes [12] was 2%, the inhibition of current by 500 nM PsTx at −60 mV, outside-out patches from oocytes [13] was less than 5% and the inhibition of current by 500 nM PsTx at −60 mV, outside-out patches from oocytes [14] was less than 5%. It also gave a Ki [15] of 24 nM.
